The values below are quoted from earlier work in paper PMC2751630.

Targets include PKA RIIβ (Homo sapiens) (UniProt P31323); PKA RIIα (Homo sapiens) (UniProt P13861); PKA RI (Homo sapiens) (UniProt P10644).

AKAP79, sequence (P24588 whole entry): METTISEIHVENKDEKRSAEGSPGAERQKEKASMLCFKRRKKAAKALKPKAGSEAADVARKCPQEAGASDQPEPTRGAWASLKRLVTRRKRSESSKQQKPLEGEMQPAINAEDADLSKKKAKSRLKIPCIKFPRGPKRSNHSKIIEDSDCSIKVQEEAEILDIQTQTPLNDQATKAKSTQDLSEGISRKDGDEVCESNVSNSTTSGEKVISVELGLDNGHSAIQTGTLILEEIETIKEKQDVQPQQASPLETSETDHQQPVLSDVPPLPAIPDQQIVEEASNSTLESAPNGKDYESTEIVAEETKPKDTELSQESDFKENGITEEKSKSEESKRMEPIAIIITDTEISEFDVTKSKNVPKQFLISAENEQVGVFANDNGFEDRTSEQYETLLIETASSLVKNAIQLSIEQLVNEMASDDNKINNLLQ
PKA RIIα (Homo sapiens), sequence (P13861 2-404): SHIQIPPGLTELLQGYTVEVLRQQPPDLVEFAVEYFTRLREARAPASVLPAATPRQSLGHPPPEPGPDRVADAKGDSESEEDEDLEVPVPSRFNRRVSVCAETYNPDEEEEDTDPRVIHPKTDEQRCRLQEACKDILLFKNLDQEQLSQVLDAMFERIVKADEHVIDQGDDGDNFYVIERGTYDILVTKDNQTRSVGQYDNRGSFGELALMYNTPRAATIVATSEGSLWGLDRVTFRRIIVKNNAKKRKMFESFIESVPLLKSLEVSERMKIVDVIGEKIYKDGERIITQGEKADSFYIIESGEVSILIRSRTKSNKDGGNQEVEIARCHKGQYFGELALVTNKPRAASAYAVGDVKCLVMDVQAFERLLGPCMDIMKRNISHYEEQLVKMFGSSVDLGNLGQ
PKA RI (Homo sapiens), sequence (P10644 whole entry): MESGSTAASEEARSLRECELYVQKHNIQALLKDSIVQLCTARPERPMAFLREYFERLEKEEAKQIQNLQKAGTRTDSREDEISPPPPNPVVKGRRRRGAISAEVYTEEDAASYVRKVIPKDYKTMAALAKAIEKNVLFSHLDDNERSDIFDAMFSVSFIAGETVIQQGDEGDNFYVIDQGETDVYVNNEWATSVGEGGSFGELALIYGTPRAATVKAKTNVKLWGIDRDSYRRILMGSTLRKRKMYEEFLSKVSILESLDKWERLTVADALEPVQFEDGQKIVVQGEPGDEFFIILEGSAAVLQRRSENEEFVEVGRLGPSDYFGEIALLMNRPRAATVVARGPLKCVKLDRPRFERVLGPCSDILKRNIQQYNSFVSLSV
PKA RIIβ (Homo sapiens), sequence (P31323 whole entry): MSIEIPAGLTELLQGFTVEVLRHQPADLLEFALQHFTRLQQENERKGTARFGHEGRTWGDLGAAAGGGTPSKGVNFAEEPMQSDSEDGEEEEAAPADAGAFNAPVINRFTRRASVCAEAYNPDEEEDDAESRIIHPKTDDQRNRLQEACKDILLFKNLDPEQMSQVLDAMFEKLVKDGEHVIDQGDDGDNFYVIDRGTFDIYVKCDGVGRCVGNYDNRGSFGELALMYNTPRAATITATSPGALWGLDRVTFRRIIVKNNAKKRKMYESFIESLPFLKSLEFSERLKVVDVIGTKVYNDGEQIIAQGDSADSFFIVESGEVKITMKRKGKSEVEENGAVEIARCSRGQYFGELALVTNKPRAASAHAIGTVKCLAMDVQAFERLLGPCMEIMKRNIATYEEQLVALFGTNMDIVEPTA

Consider AKAP79 (from UniProt P24588), for which the results for the Kd with PKA RIIβ (Homo sapiens), with PKA RIIα (Homo sapiens) and with PKA RI (Homo sapiens) were 4.5 nM, 1.5 nM and greater than 1000 nM, respectively.

One may read the Kd as the free concentration of one partner at which half of the binding sites on the other are occupied at equilibrium, for simple one-to-one binding.
